Assay results as given in US8889130B2, “Treatment of osteoarthritis and pain” (Abbvie Inc., priority 2011, dated 2014).

Experiments:
[1] = tested on: male Swiss Webster mice; assay: Joint instability model (JIM) of osteoarthritis, cartilage degeneration histology; assay type: in vivo, mouse
Method: The design of study of the in vivo activity of a mIL-1α/β DVD-Ig molecule in the joint instability model (JIM) of osteoarthritis in mice is shown in Table 19. All groups contained 25 mice (n=25), weighing approximately 30 grams (BW=30 g). The study was terminated after 21 days. Two and a half month old, male Swiss Webster mice (25/group/time point), housed 5/cage, were anesthetized with isoflurane anesthesia. Anterior cruciate ligament (ACL) trauma was administered on the right and left knees on day 0 in an attempt to induce OA lesions. Intraperitoneal (ip) treatments with IL-1 inhibitory antibodies IL-1α (9H10) and IL-1β (10G11), alone and in combination, were initiated the day of ACL trauma and continued every 4th day (q4d) for 20 days. The vehicle for the non-treatment control was PBS. Right and left knees were harvested on day 21, and histopathologic alterations were scored and characterized. Data were analyzed using only joints that had proliferative responses indicative of successful instability induction. The proliferative response/instability was scored 0-3, and only unstable joints (scores of 1, 2, or 3) were used in the final analysis. Medial and lateral femoral and tibial cartilage degeneration was scored for severity of cartilage degeneration on a scale 0-5. Four days after the last antibody dose, blood was drawn from all animals from each group for serum harvest. Body weights were recorded weekly. […]
Following 2-3 days in a decalcifying fixative (Surgipath Decalifier, Surgipath Medical Ind., Inc., Richmond Va.), both knee joints were trimmed of extraneous tissue, embedded in the frontal plane and sectioned. […] Slides were examined by a board-certified veterinary pathologist blinded to study group designation, and were scored according to the method below. […]
Medial and lateral femoral and tibial cartilage degeneration were scored for severity of cartilage degeneration using the following system: Depth/extent of chondrocyte and proteoglycan loss with fibrillation: […]
The design of this study was similar to that described above in Example 3.3.1. […] Body weights were recorded weekly. […]

[2] = tested on: Male SV129 mice; assay: Destabilization of medial meniscus (DMM) model of osteoarthritis, cartilage degeneration (Chambers scores); assay type: in vivo, mouse; settings: for mean sum Chambers scores and mean maximum Chambers scores (cartilage degeneration): Example 3.3.6 (FIG. 7)
Description: (§1) Male SV129 mice weighing approximately 30 grams, housed 5/cage, were anesthetized on Day 0 with ketamine/xylazine cocktail, administered intraperitoneally (ip), and then the medial collateral ligament was exposed by blunt dissection, and transected to reflect the meniscus toward the femur. The joint space was closed with 8-0 vicryl suture. The skin was closed with wound glue. For sham surgeries, a vertical skin incision was made over the medial aspect of the knee and the joint capsule was opened. The capsule was closed with 8-0 vicryl suture and the skin was closed with wound glue. Groups of animals were then treated with intraperitoneal (ip) injections of antibody or vehicle according to the study design table below. Two sex-matched, age-matched, and strain-matched naïve mice were also included in the study. Animals were euthanized after 8 weeks of treatment, and knee joints were harvested in 10% neutral buffered formalin.
Formalin-fixed samples were decalcified, and specimens were sectioned in the frontal plane into 15 step sections each. Each section was approximately 6 μm thick, and step sections were separated by 70 μm. All slides were stained with toluidine blue (T. Blue). Slides were assessed according to the Chambers method (Chambers et al. (2001) Arthritis Rheum 44:1455-65) for cartilage degeneration (see below) by a board-certified veterinary pathologist. Each of the four cartilage surfaces, the medial femoral condyle (MFC), the medial tibial plateau (MTP), the lateral femoral condyle (LFC), and the lateral tibial plateau (LTP), was scored from 0-6 according to the scale in the table below.
as §1, with “8-0 vicryl suture, and the” for “8-0 vicryl suture and the”, “injections of anti-mIL-1α monoclonal antibody, anti-mIL-1β (alone or in combination), mIL-1α/βDVD-Ig binding protein, or vehicle” for “injections of antibody or vehicle”, “design table below (Table 24). Animals were” for “design table below. Two sex-matched, age-matched, and strain-matched naïve mice were also included in the study. Animals were”, “weeks of treatment and knee” for “weeks of treatment, and knee”
Male SV129 mice weighing approximately 30 grams had the medial collateral ligament exposed by blunt dissection, and transected to reflect the meniscus toward the femur. The joint space was closed with 8-0 vicryl suture. The skin was closed with wound glue. For sham surgeries, a vertical skin incision was made over the medial aspect of the knee and the joint capsule was opened. The capsule was closed with 8-0 vicryl suture, and the skin was closed with wound glue. Groups of animals were then treated per os (po) or via intraperitoneal (ip) injections of vehicle or treatments according to the study design table below. Three sex-matched, age-matched, and strain-matched naïve mice were also included in the study. Animals were euthanized after 4 weeks of treatment, and knee joints were harvested in 10% neutral buffered formalin.

[3] = tested on: zymosan-induced IL-6 production; assay: Zymosan-induced IL-6 production in joint instability model study; assay type: in vivo, mouse; settings: day 21 of JIM; 50 mg/kg zymosan ip, serum 4 hours later; mAbs 6 mg/kg each; DVD-Ig 6 or 12 mg/kg
Method: As a pharmacodynamic readout to determine if anti-IL-1α and anti-IL-1β monoclonal antibodies as well as mIL-1α/β DVD-Ig binding protein were functional and capable of neutralizing IL-1α and IL-1β in vivo, zymosan-induced (IL-1α and IL-1β dependent) production of interleukin 6 (IL-6) was measured in a joint instability model study of OA.
Briefly, on day 21 in the model, zymosan was suspended in PBS vehicle and placed in boiling water for half an hour, then allowed to cool before using. The mice were then injected ip with 50 mg/kg zymosan in suspension (mixed well before injection) in 0.5 ml PBS. The mice were then bled 4 hours after zymosan injection. Serum was collected for IL-6 measurements.

[4] = tested on: male DBA-1 mice; assay: Collagen-induced arthritis mouse model (rheumatoid arthritis); assay type: in vivo; settings: therapeutic mode; 1-3 mg/kg intraperitoneally every other day after disease onset
Method: The therapeutic effects of anti-IL-1α, anti-IL-1β, combined anti-IL-1α/anti-IL-1β, and murine IL-1α/β DVD4-Ig, were evaluated in a collagen-induced arthritis mouse model well known in the art. Briefly, male DBA-1 mice were immunized with bovine type II collagen in CFA at the base of the tail. The mice were boosted with Zymosan intraperitoneally (i.p) at day 21. After disease onset at day 24-27, mice were selected and divided into separate groups of 10 mice each. […] To neutralize IL-1, mice were injected every other day with 1-3 mg/kg of anti-IL-1α mAb, anti-IL-1βmAb, combination of anti-IL-1α and anti-IL-1β mAbs, or murine IL-1α/β DVD4-Ig intraperitoneally. Mice were carefully examined three times a week for the visual appearance of arthritis in peripheral joints, and scores for disease activity determined.

B1: mIL-1α/βDVD-Ig: mouse anti-mouse DVD-Ig, V(anti-mIL-1β 10G11)-linker-V(anti-mIL-1α 9H10)-murine constant region (Cγ2a and Cκ) (antibody)
heavy: EVQLQQSGPELVKPGTSVKMSCKTSGYTFTSYVMHWVKQKPGQGLEWIGYIIPYNDNTKYNEKFKGKATLTSDKSSSTAYMELSSLTSEDSAVYYCARRNEYYGSSFFDYWGQGTTLTVSSAKTTAPSVYPLAPQVILKESGPGILQPSQTLSLTCSFSGFSLSTYGTAVNWIRQPSGKGLEWLAQIGSDDRKLYNPFLKSRITLSEDTSNSQVFLKITSVDTEDSATYYCANGVMEYWGLGTSVTVSSAKTTAPSVYPLAPVCGDTTGSSVTLGCLVKGYFPEPVTLTWNSGSLSSGVHTFPAVLQSDLYTLSSSVTVTSSTWPSQSITCNVAHPASSTKVDKKIEPRGPTIKPCPPCKCPAPNLLGGPSVFIFPPKIKDVLMISLSPIVTCVVVDVSEDDPDVQISWFVNNVEVHTAQTQTHREDYNSTLRVVSALPIQHQDWMSGKEFKCKVNNKDLPAPIERTISKPKGSVRAPQVYVLPPPEEEMTKKQVTLTCMVTDFMPEDIYVEWTNNGKTELNYKNTEPVLDSDGSYFMYSKLRVEKKNWVERNSYSCSVVHEGLHNHHTTKSFSRTPGK
light: DIQMTQSPASLSASVGETVTITCRGSGILHNYLVWYQQKQGKSPQLLVYSAKILADGVPSRFSGSGSGTQYSLKINSLQPEDFGSYYCQHFWSTPFTFGSGTKLEIKRADAAPTVSIFPPSIVMTQTPKFLLVSAGDRVTITCKASQSVNHDVAWYQQMPGQSPKLLIYFASNRYTGVPDRFTGSGYGTDFTFTISTVQAEDLAVYFCQQDYSSPYTFGGGTKLEIKRADAAPTVSIFPPSSEQLTSGGASVVCFLNNFYPKDINVKWKIDGSERQNGVLNSWTDQDSKDSTYSMSSTLTLTKDEYERHNSYTCEATHKTSTSPIVKSFNRNEC
cartilage degeneration ([1]; 3 mg/kg DVD-Ig binding protein): had not effect on cartilage degeneration
progression of osteoarthritis (cartilage degeneration scores, histopathological parameters) ([1]; Example 3.3.2 (FIG. 3), DVD-Ig 6 or 12 mg/kg ip three times weekly, mAbs 6 mg/kg each Q4D, day 21): significantly inhibited the progression of osteoarthritis
cartilage degeneration (total sum score) ([2]; Example 3.3.5 (FIG. 6), 8 weeks of treatment ip, 6 mg/kg): significantly reduced cartilage degeneration
mean sum Chambers scores and mean maximum Chambers scores (cartilage degeneration) ([2]; 8 weeks, DVD-Ig at 1.5 mg/kg (excepted from the significant reduction)): except for IL-1α/β DVD at 1.5 mg/kg
mean sum Chambers scores and mean maximum Chambers scores (cartilage degeneration) ([2]; 8 weeks, DVD-Ig at 3 and 6 mg/kg): significantly reduced
dose effect for mean sum Chambers scores ([2]; Example 3.3.6, 8 weeks, DVD-Ig 1.5, 3, 6 mg/kg): statistically significant dose effect
zymosan-induced IL-6 production [3]: significantly neutralized zymosan-induced IL-6 production
reduction in mean arthritis score compared to control group [4]: 47%
